# Measurements reported in patent US20140186327.
# T1: soluble tissue factor (sTF), P13726
# T1 chain: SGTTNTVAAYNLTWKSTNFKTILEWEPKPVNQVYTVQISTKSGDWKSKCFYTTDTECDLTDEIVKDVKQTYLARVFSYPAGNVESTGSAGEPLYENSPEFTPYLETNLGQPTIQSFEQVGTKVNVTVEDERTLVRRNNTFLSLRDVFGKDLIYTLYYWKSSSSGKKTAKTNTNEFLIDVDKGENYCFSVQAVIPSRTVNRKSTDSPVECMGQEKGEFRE
# B1: FVIIa-AE288 (protein)
# chain: AVFVTQEEAHGVLHRRRRANAFLEELRPGSLERECKEEQCSFEEAREIFKDAERTKLFWISYSDGDQCASSPCQNGGSCKDQLQSYICFCLPAFEGRNCETHKDDQLICVNENGGCEQYCSDHTGTKRSCRCHEGYSLLADGVSCTPTVEYPCGKIPILEKRNASKPQGRIVGGKVCPKGECPWQVLLLVNGAQLCGGTLINTIWVVSAAHCFDKIKNWRNLIAVLGEHDLSEHDGDEQSRRVAQVIIPSTYVPGTTNHDIALLRLHQPVVLTDHVVPLCLPERTFSERTLAFVRFSLVSGWGQLLDRGATALELMVLNVPRLMTQDCLQQSRKVGDSPNITEYMFCAGYSDGSKDSCKGDSGGPHATHYRGTWYLTGIVSWGQGCATVGHFGVYTRVSQYIEWLQKLMRSEPRPGVLLRAPFPGSPGTSESATPESGPGSEPATSGSETPGTSESATPESGPGSEPATSGSETPGTSESATPESGPGTSTEPSEGSAPGSPAGSPTSTEEGTSESATPESGPGSEPATSGSETPGTSESATPESGPGSPAGSPTSTEEGSPAGSPTSTEEGTSTEPSEGSAPGTSESATPESGPGTSESATPESGPGTSESATPESGPGSEPATSGSETPGSEPATSGSETPGSPAGSPTSTEEGTSTEPSEGSAPGTSTEPSEGSAPGSEPATSGSETPGTSESATPESGPGTSTEPSEGSAPGSSS
# Columns and labels:
# [1] = biological target: T1, soluble tissue factor (sTF), P13726
molecule,measurement,setting,value
FXI protease,"Concentration by Activity (ng/ml), aPTT based factor assay",FIX-KLTRAET-XTEN_AE864,7 ng/mL
same,Fraction Active (activity / ELISA),FIX-KLTRAET-XTEN_AE864,30%
same,fold enhancement of clotting activity against FIX-XTEN (aPTT based factor assay),FIX-KLTRAET-XTEN_AE864,In all three cases the presence of a FXI cleavage site enhanced the clotting activity by greater than 30-fold
same,"Concentration by Activity (ng/ml), aPTT based factor assay",FIX-/FXI/-XTEN_AE864,11 ng/mL
same,Fraction Active (activity / ELISA),FIX-/FXI/-XTEN_AE864,40%
same,fold enhancement of clotting activity against FIX-XTEN (aPTT based factor assay),FIX-/FXI/-XTEN_AE864,In all three cases the presence of a FXI cleavage site enhanced the clotting activity by greater than 30-fold
same,"Concentration by Activity (ng/ml), aPTT based factor assay",FIX-DFTRVVG-XTEN_AE864,9 ng/mL
same,Fraction Active (activity / ELISA),FIX-DFTRVVG-XTEN_AE864,34%
same,fold enhancement of clotting activity against FIX-XTEN (aPTT based factor assay),FIX-DFTRVVG-XTEN_AE864,In all three cases the presence of a FXI cleavage site enhanced the clotting activity by greater than 30-fold
FXa from Novagen,conversion of FVII-XTEN to FVIIa-XTEN (reducing SDS-PAGE),FVII-XTEN_AE288,Reducing SDS-PAGE indicated a complete conversion of FVII-XTEN proteins to FVIIa-XTEN proteins
same,conversion of FVII-XTEN to FVIIa-XTEN (reducing SDS-PAGE),FVII-XTEN_AE864,Reducing SDS-PAGE indicated a complete conversion of FVII-XTEN proteins to FVIIa-XTEN proteins
B1,soluble tissue factor (sTF) induced clotting (Stago STA-Clot FVIIa activity assay),[1],an activity equivalent to 112 U/ml of FVIIa activity
